Assay results published in article PMC5727232, “Structural basis for genome wide recognition of 5-bp GC motifs by SMAD transcription factors”.

Experiments:
Smad4 MH1 domain [1] = biological target: T1, Smad4 MH1 domain (Homo sapiens, UniProt Q13485 10-140); experiment: ITC; EMSA: 20 mM Tris pH 7.2, 80 mM NaCl, 2 mM DTT, 7.5 nM Cy5-DNA, 30 min room temperature, gel at 20 C; ITC: Tris pH 7.0, 20 C; details: protein: recombinant, tags: N-terminal His, cleaved (TEV or 3C), blunt
Smad4 MH1 domain [2] = biological target: T1, Smad4 MH1 domain; experiment: EMSA; no nanomolar binding; EMSA: 20 mM Tris pH 7.2, 80 mM NaCl, 2 mM DTT, 7.5 nM Cy5-DNA, 30 min room temperature, gel at 20 C; ITC: Tris pH 7.0, 20 C; details: protein: recombinant; tags: N-terminal His, cleaved (TEV or 3C); label: 5' Cy5; blunt
[3] = biological target: T2, Trichoplax Smad4 MH1 domain (Trichoplax adhaerens, UniProt B3S7S5 1-151); experiment: EMSA; EMSA: 20 mM Tris pH 7.2, 80 mM NaCl, 2 mM DTT, 7.5 nM Cy5-DNA, 30 min room temperature, gel at 20 C; ITC: Tris pH 7.0, 20 C; details: protein: recombinant; tags: N-terminal His-TEV, cleaved; label: 5' Cy5; blunt
T2 sequence: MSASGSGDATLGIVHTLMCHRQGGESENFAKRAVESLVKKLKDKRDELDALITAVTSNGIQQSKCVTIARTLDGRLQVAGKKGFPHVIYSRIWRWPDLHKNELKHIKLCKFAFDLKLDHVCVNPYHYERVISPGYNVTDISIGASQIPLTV

Smad3 MH1 domain [4] = biological target: T3, Smad3 MH1 domain (Homo sapiens, UniProt P84022 1-141); experiment: EMSA; text says GC1 oligonucleotide; EMSA: 20 mM Tris pH 7.2, 80 mM NaCl, 2 mM DTT, 7.5 nM Cy5-DNA, 30 min room temperature, gel at 20 C; ITC: Tris pH 7.0, 20 C; details: protein: recombinant; tags: N-terminal His-TEV, cleaved; label: 5' Cy5; blunt
T3 sequence (P84022 1-141): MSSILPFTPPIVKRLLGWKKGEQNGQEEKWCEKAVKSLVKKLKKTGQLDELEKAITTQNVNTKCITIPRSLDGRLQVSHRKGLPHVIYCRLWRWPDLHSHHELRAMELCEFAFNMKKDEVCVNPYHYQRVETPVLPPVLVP

Smad4 MH1 domain [5] = biological target: T1, Smad4 MH1 domain; experiment: EMSA; EMSA: 20 mM Tris pH 7.2, 80 mM NaCl, 2 mM DTT, 7.5 nM Cy5-DNA, 30 min room temperature, gel at 20 C; ITC: Tris pH 7.0, 20 C; details: protein: recombinant; tags: N-terminal His, cleaved (TEV or 3C); label: 5' Cy5; blunt
Smad4 MH1 domain [6] = biological target: T1, Smad4 MH1 domain; experiment: NMR; pH 6.3, 100 mM NaCl, 298 K; EMSA: 20 mM Tris pH 7.2, 80 mM NaCl, 2 mM DTT, 7.5 nM Cy5-DNA, 30 min room temperature, gel at 20 C; ITC: Tris pH 7.0, 20 C; details: protein: recombinant; tags: N-terminal His, cleaved (TEV or 3C); blunt
Smad3 MH1 domain [7] = biological target: T3, Smad3 MH1 domain; experiment: EMSA; EMSA: 20 mM Tris pH 7.2, 80 mM NaCl, 2 mM DTT, 7.5 nM Cy5-DNA, 30 min room temperature, gel at 20 C; ITC: Tris pH 7.0, 20 C; details: protein: recombinant; tags: N-terminal His-TEV, cleaved; label: 5' Cy5; blunt
Smad4 MH1 domain [8] = biological target: T1, Smad4 MH1 domain; experiment: NMR; 1 equivalent DNA; pH 6.3, 100 mM NaCl, 298 K; EMSA: 20 mM Tris pH 7.2, 80 mM NaCl, 2 mM DTT, 7.5 nM Cy5-DNA, 30 min room temperature, gel at 20 C; ITC: Tris pH 7.0, 20 C; details: protein: recombinant; tags: N-terminal His, cleaved (TEV or 3C); blunt
Smad4 MH1 domain [9] = biological target: T1, Smad4 MH1 domain; experiment: X-ray crystallography (3.03 A); Zn2+; EMSA: 20 mM Tris pH 7.2, 80 mM NaCl, 2 mM DTT, 7.5 nM Cy5-DNA, 30 min room temperature, gel at 20 C; ITC: Tris pH 7.0, 20 C; details: protein: recombinant; tags: N-terminal His, cleaved (TEV or 3C); blunt, self-complementary
Smad4 MH1 domain [10] = biological target: T1, Smad4 MH1 domain; experiment: X-ray crystallography (2.05 A); Zn2+; EMSA: 20 mM Tris pH 7.2, 80 mM NaCl, 2 mM DTT, 7.5 nM Cy5-DNA, 30 min room temperature, gel at 20 C; ITC: Tris pH 7.0, 20 C; details: protein: recombinant; tags: N-terminal His, cleaved (TEV or 3C); blunt, self-complementary

T1 sequence (Q13485 10-140): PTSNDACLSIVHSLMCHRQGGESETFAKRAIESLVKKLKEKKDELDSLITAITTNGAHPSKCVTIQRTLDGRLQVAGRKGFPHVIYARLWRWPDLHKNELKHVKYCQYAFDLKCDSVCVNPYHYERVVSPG

B1: CAGAC (ITC) (dsDNA)
DNA 1: AGTCAGACGCT
DNA 2: AGCGTCTGACT
For B1, the Kd (Smad4 MH1 domain [1]) was 270.5 ± 0.1 nM.

B2: SBE / GTCT (dsDNA)
DNA 1: TGCAGTCTAGACTGCA
DNA 2: TGCAGTCTAGACTGCA
For B2, the Kd (Smad4 MH1 domain [1]; label: 5' Cy5 in EMSA, self-complementary) was 200.3 ± 0.5 nM.

B3: FoxH1 site (dsDNA)
DNA 1: TCTCAATCCACAATC
DNA 2: GATTGTGGATTGAGA
B3: no binding (Smad4 MH1 domain [2]).

B4: GC1 core (dsDNA)
DNA 1: TTAAGGCCGGGGCCGCGCCGGGAATT
DNA 2: AATTCCCGGCGCGGCCCCGGCCTTAA
With B4 the binding result [3] was “binds” and the Kd (Smad3 MH1 domain [4]) was about 100 nM.

B5: -GGCCGC- (dsDNA)
DNA 1: ATTAGGCCGCAAAAAAAGCA
DNA 2: TGCTTTTTTTGCGGCCTAAT
B5: binds (Smad4 MH1 domain [5]).

B6: NMR GGCTGCC duplex (dsDNA)
DNA 1: AGCCGGCTGCC
DNA 2: GGCAGCCGGCT
B6: binds (Smad4 MH1 domain [6]).

B7: -GGCTGCC- (dsDNA)
DNA 1: GTAACCGGCTGCCGAATG
DNA 2: CATTCGGCAGCCGGTTAC
B7: binds (Smad3 MH1 domain [7]); binds (Smad4 MH1 domain [5]).

B8: GC2_14 (CCTGGGC) (dsDNA)
DNA 1: AACCTGGGCAATTA
DNA 2: TAATTGCCCAGGTT
B8: no binding (Smad4 MH1 domain [2]).

B9: GGCT 16mer (dsDNA)
DNA 1: TGCAGGCTAGCCTGCA
DNA 2: TGCAGGCTAGCCTGCA
Work on B9 yielded a Kd (Smad4 MH1 domain [1]; self-complementary) of 250.5 ± 0.8 nM.

B10: NMR GGCCGCGCC duplex (dsDNA)
DNA 1: AGGCCGCGCCGA
DNA 2: TCGGCGCGGCCT
B10: binds (Smad4 MH1 domain [8]).

B11: GGCCG-XRAY (dsDNA)
DNA 1: ACGGGCCGCGGCCCGT
DNA 2: ACGGGCCGCGGCCCGT
B11: binds (Smad4 MH1 domain [9]).

B12: GGCGC-XRAY-Smad4 18mer (dsDNA)
DNA 1: ATGCGGGCGCGCCCGCAT
DNA 2: ATGCGGGCGCGCCCGCAT
B12: binds (Smad4 MH1 domain [10]).

B13: -GGCCGG- (dsDNA)
DNA 1: ATTATTGGCCGGAAAGCA
DNA 2: TGCTTTCCGGCCAATAAT
B13: binds (Smad4 MH1 domain [5]).
